According to patent US20120220489A1:

How the values were obtained:
[1] = target: Erk1-BSA 2.7x peptide-protein conjugate (human; bovine); experiment: RPA, normal assay
[2] = target: Histone H3 recombinant protein, human, Upstate 14-494 (human) (UniProt P68431); experiment: RPA, normal assay
[3] = target: Histone H3-BSA 2.7x peptide-protein conjugate (bovine); experiment: RPA, normal assay
[4] = target: pRb recombinant protein, human, Active Motif 31 128 (human) (UniProt P06400); experiment: RPA, normal assay
[5] = target: pRb-BSA 1x peptide-protein conjugate (bovine); experiment: RPA, normal assay
[6] = target: pRb recombinant protein, human, Active Motif 31 128 (human) (UniProt P06400); experiment: RPA standard curves
[7] = target: ERK1 (p42) active (phospho), human, Active Motif 31 152 (human) (UniProt P27361); experiment: RPA, competition: +free pRb peptide 10 nM
[8] = target: ERK1 (p44) active (GST tagged), human, Invitrogen PV 3311 (human) (UniProt P27361); experiment: RPA, competition: +free pRb peptide 10 nM
[9] = target: ERK1 (p44) inactive (GST tagged), human, Invitrogen PV 3312 (human) (UniProt P27361); experiment: RPA, competition: +free pRb peptide 10 nM
[10] = target: ERK1 (p44), human, Cell Signaling Technology 7416 (human) (UniProt P27361); experiment: RPA, competition: +free pRb peptide 10 nM
[11] = target: ERK2 (p42), human, Biosource PHO 0104 (human) (UniProt P28482); experiment: RPA, competition: +free pRb peptide 10 nM
[12] = target: Erk1-BSA 2.7x peptide-protein conjugate (human; bovine); experiment: RPA, competition: +free pRb peptide 10 nM
[13] = target: Histone H3 recombinant protein, calf, Roche 11 034 758 001 (calf) (UniProt P68432); experiment: RPA, competition: +free pRb peptide 10 nM
[14] = target: Histone H3 recombinant protein, human, Upstate 14-494 (human) (UniProt P68431); experiment: RPA, competition: +free pRb peptide 10 nM
[15] = target: Histone H3-BSA 2.7x peptide-protein conjugate (bovine); experiment: RPA, competition: +free pRb peptide 10 nM
[16] = target: pErk1/2-BSA 2.7x peptide-protein conjugate (human; bovine); experiment: RPA, competition: +free pRb peptide 10 nM
[17] = target: pRb recombinant protein, human, Active Motif 31 128 (human) (UniProt P06400); experiment: RPA, competition: +free pRb peptide 10 nM
[18] = target: pRb-BSA 1x peptide-protein conjugate (bovine); experiment: RPA, competition: +free pRb peptide 10 nM
[19] = target: ERK1 (p42) active (phospho), human, Active Motif 31 152 (human) (UniProt P27361); experiment: RPA, competition: +free pRb peptide 100 nM
[20] = target: ERK1 (p44) active (GST tagged), human, Invitrogen PV 3311 (human) (UniProt P27361); experiment: RPA, competition: +free pRb peptide 100 nM
[21] = target: ERK1 (p44) inactive (GST tagged), human, Invitrogen PV 3312 (human) (UniProt P27361); experiment: RPA, competition: +free pRb peptide 100 nM
[22] = target: ERK1 (p44), human, Cell Signaling Technology 7416 (human) (UniProt P27361); experiment: RPA, competition: +free pRb peptide 100 nM
[23] = target: ERK2 (p42), human, Biosource PHO 0104 (human) (UniProt P28482); experiment: RPA, competition: +free pRb peptide 100 nM
[24] = target: Erk1-BSA 2.7x peptide-protein conjugate (human; bovine); experiment: RPA, competition: +free pRb peptide 100 nM
[25] = target: Histone H3 recombinant protein, calf, Roche 11 034 758 001 (calf) (UniProt P68432); experiment: RPA, competition: +free pRb peptide 100 nM
[26] = target: Histone H3 recombinant protein, human, Upstate 14-494 (human) (UniProt P68431); experiment: RPA, competition: +free pRb peptide 100 nM
[27] = target: Histone H3-BSA 2.7x peptide-protein conjugate (bovine); experiment: RPA, competition: +free pRb peptide 100 nM
[28] = target: pErk1/2-BSA 2.7x peptide-protein conjugate (human; bovine); experiment: RPA, competition: +free pRb peptide 100 nM
[29] = target: pRb recombinant protein, human, Active Motif 31 128 (human) (UniProt P06400); experiment: RPA, competition: +free pRb peptide 100 nM
[30] = target: pRb-BSA 1x peptide-protein conjugate (bovine); experiment: RPA, competition: +free pRb peptide 100 nM
[31] = target: ERK1 (p42) active (phospho), human, Active Motif 31 152 (human) (UniProt P27361); experiment: RPA, competition: +free pRb peptide 1000 nM
[32] = target: ERK1 (p44) active (GST tagged), human, Invitrogen PV 3311 (human) (UniProt P27361); experiment: RPA, competition: +free pRb peptide 1000 nM
[33] = target: ERK1 (p44) inactive (GST tagged), human, Invitrogen PV 3312 (human) (UniProt P27361); experiment: RPA, competition: +free pRb peptide 1000 nM
[34] = target: ERK1 (p44), human, Cell Signaling Technology 7416 (human) (UniProt P27361); experiment: RPA, competition: +free pRb peptide 1000 nM
[35] = target: ERK2 (p42), human, Biosource PHO 0104 (human) (UniProt P28482); experiment: RPA, competition: +free pRb peptide 1000 nM
[36] = target: Erk1-BSA 2.7x peptide-protein conjugate (human; bovine); experiment: RPA, competition: +free pRb peptide 1000 nM
[37] = target: Histone H3 recombinant protein, calf, Roche 11 034 758 001 (calf) (UniProt P68432); experiment: RPA, competition: +free pRb peptide 1000 nM
[38] = target: Histone H3 recombinant protein, human, Upstate 14-494 (human) (UniProt P68431); experiment: RPA, competition: +free pRb peptide 1000 nM
[39] = target: Histone H3-BSA 2.7x peptide-protein conjugate (bovine); experiment: RPA, competition: +free pRb peptide 1000 nM
[40] = target: pErk1/2-BSA 2.7x peptide-protein conjugate (human; bovine); experiment: RPA, competition: +free pRb peptide 1000 nM
[41] = target: pRb recombinant protein, human, Active Motif 31 128 (human) (UniProt P06400); experiment: RPA, competition: +free pRb peptide 1000 nM
[42] = target: pRb-BSA 1x peptide-protein conjugate (bovine); experiment: RPA, competition: +free pRb peptide 1000 nM
[43] = target: pRb recombinant protein, human, Active Motif 31 128 (human) (UniProt P06400); experiment: RPA standard curves, mean of duplicate assays
[44] = target: pRb-BSA 1x peptide-protein conjugate (bovine); experiment: RPA standard curves, mean of duplicate assays
[45] = target: pRb recombinant protein, human, Active Motif 31 128 (human) (UniProt P06400); experiment: RPA standard curve, assay 1, LOD back-calculated from one-site fit
[46] = target: pRb-BSA 1x peptide-protein conjugate (bovine); experiment: as above
[47] = target: pRb recombinant protein, human, Active Motif 31 128 (human) (UniProt P06400); experiment: RPA standard curve, assay 2, LOD back-calculated from one-site fit
[48] = target: pRb-BSA 1x peptide-protein conjugate (bovine); experiment: as above

Erk1-BSA 2.7x peptide-protein conjugate (human; bovine), sequence (peptide, as listed by the source limits assumed, chain 1 of 2): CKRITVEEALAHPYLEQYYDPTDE
Erk1-BSA 2.7x peptide-protein conjugate (human; bovine), sequence (P02769 25-607 limits assumed, chain 2 of 2): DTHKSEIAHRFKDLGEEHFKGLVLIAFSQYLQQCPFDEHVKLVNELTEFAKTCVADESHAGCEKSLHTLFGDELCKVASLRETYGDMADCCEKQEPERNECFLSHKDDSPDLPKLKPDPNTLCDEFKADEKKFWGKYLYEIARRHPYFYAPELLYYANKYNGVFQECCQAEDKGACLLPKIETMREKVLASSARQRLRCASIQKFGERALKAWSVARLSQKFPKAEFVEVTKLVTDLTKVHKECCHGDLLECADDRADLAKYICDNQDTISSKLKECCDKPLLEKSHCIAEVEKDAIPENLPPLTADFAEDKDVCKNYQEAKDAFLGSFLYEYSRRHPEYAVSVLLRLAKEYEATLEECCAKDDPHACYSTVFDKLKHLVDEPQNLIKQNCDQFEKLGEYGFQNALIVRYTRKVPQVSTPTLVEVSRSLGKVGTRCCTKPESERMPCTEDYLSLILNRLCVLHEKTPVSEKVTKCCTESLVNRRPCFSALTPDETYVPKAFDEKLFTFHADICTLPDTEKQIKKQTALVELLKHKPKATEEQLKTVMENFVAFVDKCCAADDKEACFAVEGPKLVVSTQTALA
Histone H3-BSA 2.7x peptide-protein conjugate (bovine), sequence (P02769 25-607 limits assumed): as the sequence (P02769 25-607 limits assumed, chain 2 of 2) above
pErk1/2-BSA 2.7x peptide-protein conjugate (human; bovine), sequence (P02769 25-607 limits assumed): as the sequence (P02769 25-607 limits assumed, chain 2 of 2) above
pRb-BSA 1x peptide-protein conjugate (bovine), sequence (P02769 25-607 limits assumed): as the sequence (P02769 25-607 limits assumed, chain 2 of 2) above
UniProt P28482, sequence (P28482 2-360 limits assumed): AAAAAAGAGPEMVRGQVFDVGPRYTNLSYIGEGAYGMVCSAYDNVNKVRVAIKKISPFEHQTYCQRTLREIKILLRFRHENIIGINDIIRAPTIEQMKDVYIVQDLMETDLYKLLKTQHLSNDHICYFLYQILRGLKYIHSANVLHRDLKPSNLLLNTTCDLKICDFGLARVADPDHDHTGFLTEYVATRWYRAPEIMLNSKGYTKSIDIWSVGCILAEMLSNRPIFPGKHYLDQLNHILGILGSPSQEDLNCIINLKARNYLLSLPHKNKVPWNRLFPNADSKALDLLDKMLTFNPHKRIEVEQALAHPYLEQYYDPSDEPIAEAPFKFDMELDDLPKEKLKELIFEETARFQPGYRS
UniProt P06400, sequence (P06400 whole entry): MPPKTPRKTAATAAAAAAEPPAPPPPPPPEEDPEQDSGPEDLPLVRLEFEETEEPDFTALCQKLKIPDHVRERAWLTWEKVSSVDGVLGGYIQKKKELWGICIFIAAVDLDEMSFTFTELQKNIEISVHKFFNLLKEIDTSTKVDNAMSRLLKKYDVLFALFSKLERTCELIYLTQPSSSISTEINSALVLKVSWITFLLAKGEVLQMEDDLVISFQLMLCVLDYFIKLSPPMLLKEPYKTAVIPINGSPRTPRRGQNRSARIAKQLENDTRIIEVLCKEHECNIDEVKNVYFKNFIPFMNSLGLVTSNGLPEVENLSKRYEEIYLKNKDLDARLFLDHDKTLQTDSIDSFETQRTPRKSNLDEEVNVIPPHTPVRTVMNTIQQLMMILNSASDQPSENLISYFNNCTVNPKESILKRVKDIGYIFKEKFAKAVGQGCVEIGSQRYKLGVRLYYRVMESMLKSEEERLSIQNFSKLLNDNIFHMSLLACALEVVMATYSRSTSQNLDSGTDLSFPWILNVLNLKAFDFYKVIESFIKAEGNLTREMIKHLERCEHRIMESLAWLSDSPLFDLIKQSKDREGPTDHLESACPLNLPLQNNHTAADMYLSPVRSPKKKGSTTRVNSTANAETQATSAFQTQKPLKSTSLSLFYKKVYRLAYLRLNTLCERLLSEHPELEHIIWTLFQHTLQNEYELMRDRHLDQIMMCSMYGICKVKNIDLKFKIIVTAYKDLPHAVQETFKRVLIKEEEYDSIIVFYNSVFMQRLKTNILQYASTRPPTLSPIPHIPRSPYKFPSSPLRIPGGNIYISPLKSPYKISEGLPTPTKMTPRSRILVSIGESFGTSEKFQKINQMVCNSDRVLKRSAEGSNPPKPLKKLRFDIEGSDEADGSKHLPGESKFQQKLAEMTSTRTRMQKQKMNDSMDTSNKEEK

“Rb phospho (pRb) Ser807/811 antibody, Cell Signaling Technology #9308” gave a maximum standard curve signal [1] of 0.01 RFI, a maximum standard curve signal [2] of 0.01 RFI and a maximum standard curve signal [3] of 0.03 RFI. The maximum standard curve signal [4] was 0.04 RFI, the maximum standard curve signal [5] was 0.47 RFI and the signal intensity relative to the pRb-BSA peptide standard curves [6] was 10%. The maximum standard curve signal [7] was under 0.01 RFI, the maximum standard curve signal [8] was under 0.01 RFI and the maximum standard curve signal [9] was under 0.01 RFI. The maximum standard curve signal [10] was under 0.01 RFI, the maximum standard curve signal [11] was under 0.01 RFI and the maximum standard curve signal [12] was under 0.01 RFI. The maximum standard curve signal [13] was under 0.01 RFI, the maximum standard curve signal [14] was under 0.01 RFI and the maximum standard curve signal [15] was 0.02 RFI. It also gave a maximum standard curve signal [16] of 0.01 RFI, a maximum standard curve signal [17] of under 0.01 RFI and a maximum standard curve signal [18] of 0.07 RFI. For the same substance, the maximum standard curve signal [19] was under 0.01 RFI, the maximum standard curve signal [20] was under 0.01 RFI and the maximum standard curve signal [21] was under 0.01 RFI. It also gave a maximum standard curve signal [22] of under 0.01 RFI, a maximum standard curve signal [23] of under 0.01 RFI and a maximum standard curve signal [24] of under 0.01 RFI. It also gave a maximum standard curve signal [25] of under 0.01 RFI, a maximum standard curve signal [26] of under 0.01 RFI and a maximum standard curve signal [27] of 0.02 RFI. It also gave a maximum standard curve signal [28] of under 0.01 RFI, a maximum standard curve signal [29] of under 0.01 RFI and a maximum standard curve signal [30] of under 0.01 RFI. It also gave a maximum standard curve signal [31] of under 0.01 RFI, a maximum standard curve signal [32] of under 0.01 RFI and a maximum standard curve signal [33] of under 0.01 RFI. For the same substance, the maximum standard curve signal [34] was under 0.01 RFI, the maximum standard curve signal [35] was under 0.01 RFI and the maximum standard curve signal [36] was under 0.01 RFI. The maximum standard curve signal [37] was under 0.01 RFI, the maximum standard curve signal [38] was under 0.01 RFI and the maximum standard curve signal [39] was 0.01 RFI. It also gave a maximum standard curve signal [40] of under 0.01 RFI, a maximum standard curve signal [41] of under 0.01 RFI and a maximum standard curve signal [42] of under 0.01 RFI. It also gave a mean LOD [43] of 0.097 nM, a mean LOD [44] of 0.025 nM and an LOD [45] of 0.117 nM. It also gave an LOD [46] of 0.024 nM, an LOD [47] of 0.077 nM and an LOD [48] of 0.026 nM.
